Laboratory results as given in patent publication US20220396631A1 (Novartis, published 2022).

T1: human BCMA (human, UniProt Q02223 1-54, limits assumed)
T1 construct: also called B-cell maturation antigen; TNFRSF17
T1 sequence (looked up): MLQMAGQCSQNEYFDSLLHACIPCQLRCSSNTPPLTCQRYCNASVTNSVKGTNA

B1: CD58 Full ECD (ligand)
chain: SQQIYGVVYGNVTFHVPSNVPLKEVLWKKQKDKVAELENSEFRAFSSFKNRVYLDTVSGSLTIYNLTSSDEDEYEMESPNITDTMKFFLYVLESLPSPTLTCALTNGSIEVQCMIPEHYNSHRGLIMYSWDCPMEQCKRNSTSIYFKMENDLPQKIQCTLSNPLFNTTSSIILTTCIPSSGHSRHRGGGGSHHHHHHHH
notes: Recombinant, made in HEK293 cells
B2: Human CD2 (receptor)
chain: KEITNALETWGALGQDINLDIPSFQMSDDIDDIKWEKTSDKKKIAQFRKEKETFKEKDTYKLFKNGTLKIKHLKTDDQDIYKVSIYDTKGKNVLEKIFDLKIQERVSKPKISWTCINTTLTCEVMNGTDPELNLYQDGKHLKLSQRVITHKWTTSLSAKFKCTAGNKVSKESSVEPVSCPEKGLD
notes: also called recombinant human CD2; CD2 extracellular domain

What was measured:
[1] = target: B2; experiment: isothermal titration calorimetry; 100 uM CD2 titrated into 10 uM CD58 variant in HBS
Procedure: (§1) To ensure the binding affinity remained uncompromised by the additional of the stabilizing disulfide variance, isothermal calorimetry (ITC) was performed on the resulting recombinant CD58 proteins to determine their apparent KD and binding stoicheometry (n) to recombinant human CD2.
(§2) Briefly, recombinant human CD2 and recombinant human CD58 variants were dialyzed into HEPES-buffered saline (HBS). CD2 was diluted to final concentration of 100 μM, CD58 variants were diluted to 10 μM. CD2 was titrated into 10 μM of CD58 variants via multiple injections and ΔH (kcal/mole) determined using a MicroCal VP-ITC isothermal titration calorimeter (Malvern). Titrations of CD2 into HBS were used as a reference and KD and n determined from the resulting data.

[2] = target: T1, human BCMA; experiment: affinity maturation of PI-61
[3] = target: T1, human BCMA; experiment: phage display selection
[4] = target: B1; experiment: isothermal titration calorimetry; 100 uM CD2 titrated into 10 uM CD58 variant in HBS
Procedure: as §1, §2

Row | Binder | Kd [1] | n (binding stoichiometry) [1] | binding result [2] | other results
1 | CD58_IgV (ligand, Recombinant, made in HEK293 cells; also called CD58 domain 1; IgV domain of CD58 (wild type)) SQQIYGVVYGNVTFHVPSNVPLKEVLWKKQKDKVAELENSEFRAFSSFKNRVYLDTVSGSLTIYNLTSSDEDEYEMESPNITDTMKFFLYVLESGGGGSHHHHHHHH | 610 nM | 0.96 |  | 
2 | IgV V54C_G88C (ligand, Disulfide-stabilised variant) SQQIYGVVYGNVTFHVPSNVPLKECLWKKQKDKVAELENSEFRAFSSFKNRVYLDTVSCSLTIYNLTSSDEDEYEMESPNITDTMKFFLYVLESGGGGSHHHHHHHH | 600 nM | 0.83 |  | 
3 | IgV V45C_M114C (ligand, Disulfide-stabilised variant) SQQIYGVVYGNVTFHCPSNVPLKEVLWKKQKDKVAELENSEFRAFSSFKNRVYLDTVSGSLTIYNLTSSDEDEYEMESPNITDTCKFFLYVLESGGGGSHHHHHHHH | 380 nM | 0.88 |  | 
4 | IgV V45C_M105C (ligand, Disulfide-stabilised variant) SQQIYGVVYGNVTFHCPSNVPLKEVLWKKQKDKVAELENSEFRAFSSFKNRVYLDTVSGSLTIYNLTSSDEDEYECESPNITDTMKFFLYVLESGGGGSHHHHHHHH | 880 nM | 0.97 |  | 
5 | B1 |  | 0.92 |  | 
6 | H3-13 (antibody, V domains shown, AB3 family) VH: QVQLQESGGGVVQPGRSLRLSCAASGFTFSSYGMHWVRQAPGKGLEWVAVISYDDAHKYYADSVKGRFTISRDNSKNTLYLQMNSLRAEDTAVYYCGGSGYALHDQYKPVDVWGQGTLVTVSS VL: QSALTQPASVSGSPGQSITISCTGTSSDVGGYNYVSWYQQHPGKAPKLMIYEVSNRLRGVSNRFSGSKFGNTASLTISGLQAEDEADYYCSSYTSSSTLYVFGSGTKVTVL |  |  | binds | 
7 | H2/L2-22 (antibody, V domains shown, AB3 family) VH: QAQLQSSEGGVVQPGRSLRLSCAASGFTFSSYGMHWVRQAPGKGLEWVAVISYHGSNKYYADSVKGRFTISRDNSKNTLYLQMNSLRAEDTAVYYCGGSGYALHDDYYGLDVWGQGTLVTVSS VL: QSALTQPASVSGSPGQSITISCTGTSSDVGGYNYVSWYQQHPGKAPKLMIYEVSNRLSGVSNRFSGSKFGNTASLTISGLQAEDEADYYCSSYTSSSTLYVFGSGTKVTVL |  |  | binds | 
8 | PI-61 (antibody, V domains shown, also called parental PI-61 antibody; P1-61) VH: QVQLQESGGGVVQPGRSLRLSCAASGFTFSSYGMHWVRQAPGKGLEWVAVISYDGSNKYYADSVKGRFTISRDNSKNTLYLQMNSLRAEDTAVYYCGGSGYALHDDYYGLDVWGQGTLVTVSS VL: QSALTQPASVSGSPGQSITISCTGTSSDVGGYNYVSWYQQHPGKAPKLMIYDVSNRPSGVSNRFSGSKSGNTASLTISGLQAEDEADYYCSSYTSSSTLYVFGSGTKVTVL |  |  |  | binding result [3]: binds
9 | H3-14 (antibody, V domains shown, AB3 family) VH: QVQLQGSGGGVVQPGRSLRLSCAASGFTFSSYGMHWVRQAPGKGLEWVAVISYDDAHKYYADSVKGRFTISRDNSKNTLYLQMNSLRAEDTAVYYCGGSGYALHDQYKPVDVWGQGTLVTVSS VL: QSALTQPASVSGSPGQSITISCTGTSSDVGGYNYVSWYQQHPGKAPKLMIYEVSNRLSGVSNRFSGSKFGNTASLTISGLQAEDEADYYCSSYTSSSALYVFGSGTKVTVL |  |  | binds | 
10 | H3-15 (antibody, V domains shown, AB3 family) VH: QVQLQGSGGGVVQPGRSLRLSCAASGFTVSSYGMHWVRQAPGKGLEWVAVISYDDANKYYADSVKGRFTISRDSSKNTLYLQMNSLRAEDTAVYYCGGSGYAYDGDYYGLDVWGQGTLVTVSS VL: QSALTQPASVSGSPGQSITISCTGTSSDVGGYNYVSWYQQHPGKAPKLMIYEVSNRLGGVSNRFSGSKFGNTASLTISGLQAEDEADYYCSSYTSSSALYVFGSGTKVTVL |  |  | binds | 
11 | B2 |  |  |  | Kd [4]: 570 nM
